# Experimental data: IntAct's records for PubMed 24855949
# B1: NF-kappa-B inhibitor alpha (Gallus gallus (Chicken)), Q91974 (parent)
# chain: MLSAHRPAEPPAVEGCEPPRKERQGGLLPPDDRHDSGLDSMKEEEYRQLVRELEDIRLQPREPPARPHAWAQQLTEDGDTFLHLAIIHEEKALSLEVIRQAAGDAAFLNFQNNLSQTPLHLAVITDQAEIAEHLLKAGCDLDVRDFRGNTPLHIACQQGSLRSVSVLTQHCQPHHLLAVLQATNYNGHTCLHLASIQGYLAVVEYLLSLGADVNAQEPCNGRTALHLAVDLQNSDLVSLLVKHGPDVNKVTYQGYSPYQLTWGRDNASIQEQLKLLTTADLQILPESEDEESSESEPEFTEDELMYDDCCIGGRQLTF
# B2: Cyclin-dependent kinase inhibitor 2A (Homo sapiens), P42771 (parent)
# chain: MEPAAGSSMEPSADWLATAAARGRVEEVRALLEAGALPNAPNSYGRRPIQVMMMGSARVAELLLLHGAEPNCADPATLTRPVHDAAREGFLDTLVVLHRAGARLDVRDAWGRLPVDLAEELGHRDVARYLRAAAGGTRGSNHARIDAAEGPSDIPD
# B3: Ankyrin repeat domain-containing protein 49 (Homo sapiens), Q8WVL7 (parent)
# chain: MEKEKGNDDGIPDQENSLDFSEHFNQLELLETHGHLIPTGTQSLWVGNSDEDEEQDDKNEEWYRLQEKKMEKDPSRLLLWAAEKNRLTTVRRLLSEKATHVNTRDEDEYTPLHRAAYSGHLDIVQELIAQGADVHAVTVDGWTPLHSACKWNNTRVASFLLQHDADINAQTKGLLTPLHLAAGNRDSKDTLELLLMNRYVKPGLKNNLEETAFDIARRTSIYHYLFEIVEGCTNSSPQS
# Variants of: B1
# Conditions: with ran_human RAN
row,effect of a mutation on the interaction,Variant
1,decreasing interaction strength,MLSAHRPAEPPAVEGCEPPRKERQGGLLPPDDRHDSGLDSMKEEEYRQLVRELEDIRLQPREPPARPHAWAQQLTEDGDTFLHLAIIHEEKALSLEVIRQAAGDAAFLNFQNNLSQTPLHLAVQTDQAEIAEHLLKAGCDLDVRDFRGNTPLHIACQQGSLRSVSVLTQHCQPHHLLAVLQATNYNGHTCLHLASIQGYLAVVEYLLSLGADVNAQEPCNGRTALHLAVDLQNSDLVSLLVKHGPDVNKVTYQGYSPYQLTWGRDNASIQEQLKLLTTADLQILPESEDEESSESEPEFTEDELMYDDCCIGGRQLTF [I124Q]
2,decreasing interaction strength,MLSAHRPAEPPAVEGCEPPRKERQGGLLPPDDRHDSGLDSMKEEEYRQLVRELEDIRLQPREPPARPHAWAQQLTEDGDTFLHLAIIHEEKALSLEVIRQAAGDAAFLNFQNNLSQTPLHLAVETDQAEIAEHLLKAGCDLDVRDFRGNTPLHIACQQGSLRSVSVLTQHCQPHHLLAVLQATNYNGHTCLHLASIQGYLAVVEYLLSLGADVNAQEPCNGRTALHLAVDLQNSDLVSLLVKHGPDVNKVTYQGYSPYQLTWGRDNASIQEQLKLLTTADLQILPESEDEESSESEPEFTEDELMYDDCCIGGRQLTF [I124E]
3,decreasing interaction strength,MLSAHRPAEPPAVEGCEPPRKERQGGLLPPDDRHDSGLDSMKEEEYRQLVRELEDIRLQPREPPARPHAWAQQLTEDGDTFLHLAIIHEEKALSLEVIRQAAGDAAFLNFQNNLSQTPLHLAVKTDQAEIAEHLLKAGCDLDVRDFRGNTPLHIACQQGSLRSVSVLTQHCQPHHLLAVLQATNYNGHTCLHLASIQGYLAVVEYLLSLGADVNAQEPCNGRTALHLAVDLQNSDLVSLLVKHGPDVNKVTYQGYSPYQLTWGRDNASIQEQLKLLTTADLQILPESEDEESSESEPEFTEDELMYDDCCIGGRQLTF [I124K]
4,decreasing interaction strength,MLSAHRPAEPPAVEGCEPPRKERQGGLLPPDDRHDSGLDSMKEEEYRQLVRELEDIRLQPREPPARPHAWAQQLTEDGDTFLHLAIIHEEKALSLEVIRQAAGDAAFLNFQNNLSQTPLHLAVRTDQAEIAEHLLKAGCDLDVRDFRGNTPLHIACQQGSLRSVSVLTQHCQPHHLLAVLQATNYNGHTCLHLASIQGYLAVVEYLLSLGADVNAQEPCNGRTALHLAVDLQNSDLVSLLVKHGPDVNKVTYQGYSPYQLTWGRDNASIQEQLKLLTTADLQILPESEDEESSESEPEFTEDELMYDDCCIGGRQLTF [I124R]
5,decreasing interaction strength,MLSAHRPAEPPAVEGCEPPRKERQGGLLPPDDRHDSGLDSMKEEEYRQLVRELEDIRLQPREPPARPHAWAQQLTEDGDTFLHLAIIHEEKALSLEVIRQAAGDAAFLNFQNNLSQTPLHLAVATDQAEIAEHLLKAGCDLDVRDFRGNTPLHIACQQGSLRSVSVLTQHCQPHHLLAVLQATNYNGHTCLHLASIQGYLAVVEYLLSLGADVNAQEPCNGRTALHLAVDLQNSDLVSLLVKHGPDVNKVTYQGYSPYQLTWGRDNASIQEQLKLLTTADLQILPESEDEESSESEPEFTEDELMYDDCCIGGRQLTF [I124A]

# Variants of: B2
# Conditions: with ran_human RAN
row,effect of a mutation on the interaction,Variant
1,disrupting interaction strength,M53I
2,disrupting interaction strength,R87P

# Variants of: B2
# Conditions: with cdk4_human CDK4, P11802
# cdk4_human CDK4, P11802, sequence (P11802 whole entry): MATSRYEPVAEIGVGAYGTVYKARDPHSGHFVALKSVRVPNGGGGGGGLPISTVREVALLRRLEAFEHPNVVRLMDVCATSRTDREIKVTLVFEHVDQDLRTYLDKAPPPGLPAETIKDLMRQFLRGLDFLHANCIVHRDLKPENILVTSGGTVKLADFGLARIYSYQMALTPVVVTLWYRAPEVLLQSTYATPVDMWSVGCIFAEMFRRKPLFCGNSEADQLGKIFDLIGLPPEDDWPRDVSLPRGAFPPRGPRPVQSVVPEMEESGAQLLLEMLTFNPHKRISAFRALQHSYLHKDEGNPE
row,effect of a mutation on the interaction,Variant
1,increasing interaction strength,M53I
2,increasing interaction strength,R87P

# Variants of: B2
# Conditions: with ccnd1_human CCND1, P24385
# ccnd1_human CCND1, P24385, sequence (P24385 whole entry): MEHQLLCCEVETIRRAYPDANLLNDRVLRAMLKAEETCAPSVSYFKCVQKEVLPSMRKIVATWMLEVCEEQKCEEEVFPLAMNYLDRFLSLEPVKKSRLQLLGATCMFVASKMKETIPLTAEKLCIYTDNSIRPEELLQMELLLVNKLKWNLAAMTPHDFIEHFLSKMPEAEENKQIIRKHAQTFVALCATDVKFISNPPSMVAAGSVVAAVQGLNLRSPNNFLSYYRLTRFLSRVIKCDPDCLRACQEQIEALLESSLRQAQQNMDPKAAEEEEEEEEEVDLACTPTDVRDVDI
row,effect of a mutation on the interaction,Variant
1,increasing interaction strength,M53I
2,disrupting interaction strength,R87P

# Variants of: B2
# Conditions: with cdk6_human CDK6, Q00534
# cdk6_human CDK6, Q00534, sequence (Q00534 whole entry): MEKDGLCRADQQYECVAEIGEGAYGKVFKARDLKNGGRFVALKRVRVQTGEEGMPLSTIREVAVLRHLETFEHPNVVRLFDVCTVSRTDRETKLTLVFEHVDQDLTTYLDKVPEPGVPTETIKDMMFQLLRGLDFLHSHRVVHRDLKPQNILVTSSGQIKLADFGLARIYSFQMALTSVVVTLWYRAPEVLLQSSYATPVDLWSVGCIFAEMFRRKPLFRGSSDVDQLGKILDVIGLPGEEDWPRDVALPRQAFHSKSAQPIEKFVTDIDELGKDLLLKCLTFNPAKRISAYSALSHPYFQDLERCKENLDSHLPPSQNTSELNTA
row,effect of a mutation on the interaction,Variant
1,increasing interaction strength,M53I
2,increasing interaction strength,R87P

# Variants of: B2
# Conditions: with ran_human RAN
# Remark: another data set of the same source
row,effect of a mutation on the interaction,Variant
1,increasing interaction strength,M53I
2,increasing interaction strength,R87P

# Variants of: B2
# Conditions: with cdk4_human CDK4, P11802
# Remark: another data set of the same source
row,effect of a mutation on the interaction,Variant
1,decreasing interaction strength,R87P

# Variants of: B2
# Conditions: with cdk6_human CDK6, Q00534
# Remark: another data set of the same source
row,effect of a mutation on the interaction,Variant
1,decreasing interaction strength,R87P

# Variants of: B3
# Conditions: with ran_human RAN
row,effect of a mutation on the interaction,Variant
1,increasing interaction strength,MEKEKGNDDGIPDQENSLDFSEHFNQLELLETHGHLIPTGTQSLWVGNSDEDEEQDDKNEEWYRLQEKKMEKDPSRLLLWAAEKNRLTTVRRLLSEKATHVNTRDECEYTPLHRAAYSGHLDIVQELIAQGADVHAVTVDGWTPLHSACCWNNTRVASFLLQHDADINAQTKGLLTPLHLAAGNRDSKDTLELLLMNRYVKPGLKNNLEETAFDIARRTSIYHYLFEIVEGCTNSSPQS [D107C;K150C]
2,increasing interaction strength,MEKEKGNDDGIPDQENSLDFSEHFNQLELLETHGHLIPTGTQSLWVGNSDEDEEQDDKNEEWYRLQEKKMEKDPSRLLLWAAEKNRLTTVRRLLSEKATHVNTRDECEYTPLHRAAYSGHLDIVQELIAQGADVHAVTVDGWTPLHSACCWNNTRVASFLLQHDADINAQTKGLLTPLHLAACNRDSKDTLELLLMNRYVKPGLKNNLEETAFDIARRTSIYHYLFEIVEGCTNSSPQS [D107C;K150C;G183C]
3,increasing interaction strength,MEKEKGNDDGIPDQENSLDFSEHFNQLELLETHGHLIPTGTQSLWVGNSDEDEEQDDKNEEWYRLQEKKMEKDPSRLLLWAAEKNRLTTVRRLLSEKATHVNTRDEDEYTPLHRAAYSGHLDIVQELIAQGADVHAVTVDGWTPLHSACKWNNTRVASFLLQHDADINAQTKGLLTPLHLAACNRDSKDTLELLLMNRYVKPGLKNNLEETAFDIARRTSIYHYLFEIVEGCTNSSPQS [G183C]
4,increasing interaction strength,MEKEKGNDDGIPDQENSLDFSEHFNQLELLETHGHLIPTGTQSLWVGNSDEDEEQDDKNEEWYRLQEKKMEKDPSRLLLWAAEKNRLTTVRRLLSEKATHVNTRDEIEYTPLHRAAYSGHLDIVQELIAQGADVHAVTVDGWTPLHSACIWNNTRVASFLLQHDADINAQTKGLLTPLHLAAGNRDSKDTLELLLMNRYVKPGLKNNLEETAFDIARRTSIYHYLFEIVEGCTNSSPQS [D107I;K150I]
5,increasing interaction strength,MEKEKGNDDGIPDQENSLDFSEHFNQLELLETHGHLIPTGTQSLWVGNSDEDEEQDDKNEEWYRLQEKKMEKDPSRLLLWAAEKNRLTTVRRLLSEKATHVNTRDEDEYTPLHRAAYSGHLDIVQELIAQGADVHAVTVDGWTPLHSACIWNNTRVASFLLQHDADINAQTKGLLTPLHLAAGNRDSKDTLELLLMNRYVKPGLKNNLEETAFDIARRTSIYHYLFEIVEGCTNSSPQS [K150I]
